Experimental data published in PMC9270970.

Molecular target: SynNotch receptor (CD8a signal-Myc-LaG17-Notch1 minimal transmembrane core-tTA) (mouse) (UniProt Q01705)
UniProt Q01705, sequence (Q01705 whole entry): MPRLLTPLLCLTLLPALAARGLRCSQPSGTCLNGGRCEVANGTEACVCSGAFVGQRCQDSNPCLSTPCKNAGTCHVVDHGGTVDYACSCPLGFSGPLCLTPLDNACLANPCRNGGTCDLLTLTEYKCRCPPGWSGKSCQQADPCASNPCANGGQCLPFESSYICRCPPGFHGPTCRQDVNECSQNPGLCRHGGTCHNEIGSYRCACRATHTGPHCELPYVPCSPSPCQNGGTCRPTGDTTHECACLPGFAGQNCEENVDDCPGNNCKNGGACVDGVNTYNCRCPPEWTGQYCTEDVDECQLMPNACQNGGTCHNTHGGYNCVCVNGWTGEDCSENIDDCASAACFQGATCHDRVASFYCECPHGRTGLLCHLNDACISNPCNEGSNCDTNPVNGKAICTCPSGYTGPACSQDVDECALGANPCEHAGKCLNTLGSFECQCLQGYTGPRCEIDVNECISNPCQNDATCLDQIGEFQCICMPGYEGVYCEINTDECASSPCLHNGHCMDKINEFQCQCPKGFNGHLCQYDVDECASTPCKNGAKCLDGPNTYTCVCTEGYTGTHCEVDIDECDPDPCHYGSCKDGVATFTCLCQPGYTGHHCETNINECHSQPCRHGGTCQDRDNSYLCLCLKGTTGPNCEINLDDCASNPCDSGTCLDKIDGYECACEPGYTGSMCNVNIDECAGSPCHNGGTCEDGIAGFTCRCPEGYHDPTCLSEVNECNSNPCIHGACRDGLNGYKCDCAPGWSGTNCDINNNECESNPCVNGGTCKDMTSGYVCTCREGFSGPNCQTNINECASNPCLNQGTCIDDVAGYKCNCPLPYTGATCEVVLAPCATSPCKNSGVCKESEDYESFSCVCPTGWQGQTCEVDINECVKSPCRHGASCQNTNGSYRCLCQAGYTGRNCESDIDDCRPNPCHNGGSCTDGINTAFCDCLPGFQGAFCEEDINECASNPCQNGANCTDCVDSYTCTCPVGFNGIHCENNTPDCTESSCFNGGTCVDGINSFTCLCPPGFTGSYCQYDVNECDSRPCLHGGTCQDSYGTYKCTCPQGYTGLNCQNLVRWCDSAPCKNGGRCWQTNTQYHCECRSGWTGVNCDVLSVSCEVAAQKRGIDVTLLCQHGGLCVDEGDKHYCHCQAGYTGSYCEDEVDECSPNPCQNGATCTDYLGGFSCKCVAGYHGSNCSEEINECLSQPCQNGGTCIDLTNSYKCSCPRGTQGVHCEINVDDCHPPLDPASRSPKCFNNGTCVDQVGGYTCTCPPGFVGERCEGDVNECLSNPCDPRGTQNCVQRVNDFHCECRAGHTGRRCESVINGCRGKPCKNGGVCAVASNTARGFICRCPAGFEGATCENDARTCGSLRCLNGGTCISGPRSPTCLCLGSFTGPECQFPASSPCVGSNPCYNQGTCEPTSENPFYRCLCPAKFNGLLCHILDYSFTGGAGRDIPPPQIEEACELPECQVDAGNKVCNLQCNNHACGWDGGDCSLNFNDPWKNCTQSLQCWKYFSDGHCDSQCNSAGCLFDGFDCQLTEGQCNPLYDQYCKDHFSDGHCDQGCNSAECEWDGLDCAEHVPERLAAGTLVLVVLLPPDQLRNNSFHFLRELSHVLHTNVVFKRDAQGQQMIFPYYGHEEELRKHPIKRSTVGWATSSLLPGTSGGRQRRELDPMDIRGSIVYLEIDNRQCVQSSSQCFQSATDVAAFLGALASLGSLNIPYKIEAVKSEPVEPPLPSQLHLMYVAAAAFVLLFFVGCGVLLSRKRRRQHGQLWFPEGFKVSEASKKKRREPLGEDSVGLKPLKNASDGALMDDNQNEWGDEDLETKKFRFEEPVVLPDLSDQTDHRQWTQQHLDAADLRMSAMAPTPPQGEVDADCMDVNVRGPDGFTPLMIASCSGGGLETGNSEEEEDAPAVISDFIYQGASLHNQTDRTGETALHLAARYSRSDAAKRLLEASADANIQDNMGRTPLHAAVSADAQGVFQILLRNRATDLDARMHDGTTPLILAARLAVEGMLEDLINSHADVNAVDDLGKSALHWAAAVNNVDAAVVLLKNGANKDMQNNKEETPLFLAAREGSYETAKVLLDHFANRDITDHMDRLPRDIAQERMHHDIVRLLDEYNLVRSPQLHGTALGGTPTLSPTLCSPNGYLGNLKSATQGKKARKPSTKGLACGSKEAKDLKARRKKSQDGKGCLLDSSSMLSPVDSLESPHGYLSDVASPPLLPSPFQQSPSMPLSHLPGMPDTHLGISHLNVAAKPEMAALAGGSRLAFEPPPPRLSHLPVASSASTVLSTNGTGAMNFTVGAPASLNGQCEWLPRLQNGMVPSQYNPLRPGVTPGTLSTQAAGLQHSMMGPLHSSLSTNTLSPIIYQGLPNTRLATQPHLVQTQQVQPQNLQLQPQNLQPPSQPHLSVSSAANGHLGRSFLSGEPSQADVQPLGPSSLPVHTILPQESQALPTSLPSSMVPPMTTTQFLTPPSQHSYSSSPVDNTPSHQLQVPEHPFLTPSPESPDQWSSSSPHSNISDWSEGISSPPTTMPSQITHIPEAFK

Substance “membrane-tethered extracellular EGFP (IgGK signal-EGFP-PDGFRB TMD) (ligand)” has a percentage of STC receiver cells that induce mCherry after 24 h of co-culture with different proportions of sender cells (20% to 90% sender cells) greater than 90%.
